Laboratory results from publication PMC3036992.

Target: T1, RB69 DNA polymerase (RB69 pol) (Bacteriophage RB69, UniProt Q38087 1-903, D222A;D327A)
T1 sequence: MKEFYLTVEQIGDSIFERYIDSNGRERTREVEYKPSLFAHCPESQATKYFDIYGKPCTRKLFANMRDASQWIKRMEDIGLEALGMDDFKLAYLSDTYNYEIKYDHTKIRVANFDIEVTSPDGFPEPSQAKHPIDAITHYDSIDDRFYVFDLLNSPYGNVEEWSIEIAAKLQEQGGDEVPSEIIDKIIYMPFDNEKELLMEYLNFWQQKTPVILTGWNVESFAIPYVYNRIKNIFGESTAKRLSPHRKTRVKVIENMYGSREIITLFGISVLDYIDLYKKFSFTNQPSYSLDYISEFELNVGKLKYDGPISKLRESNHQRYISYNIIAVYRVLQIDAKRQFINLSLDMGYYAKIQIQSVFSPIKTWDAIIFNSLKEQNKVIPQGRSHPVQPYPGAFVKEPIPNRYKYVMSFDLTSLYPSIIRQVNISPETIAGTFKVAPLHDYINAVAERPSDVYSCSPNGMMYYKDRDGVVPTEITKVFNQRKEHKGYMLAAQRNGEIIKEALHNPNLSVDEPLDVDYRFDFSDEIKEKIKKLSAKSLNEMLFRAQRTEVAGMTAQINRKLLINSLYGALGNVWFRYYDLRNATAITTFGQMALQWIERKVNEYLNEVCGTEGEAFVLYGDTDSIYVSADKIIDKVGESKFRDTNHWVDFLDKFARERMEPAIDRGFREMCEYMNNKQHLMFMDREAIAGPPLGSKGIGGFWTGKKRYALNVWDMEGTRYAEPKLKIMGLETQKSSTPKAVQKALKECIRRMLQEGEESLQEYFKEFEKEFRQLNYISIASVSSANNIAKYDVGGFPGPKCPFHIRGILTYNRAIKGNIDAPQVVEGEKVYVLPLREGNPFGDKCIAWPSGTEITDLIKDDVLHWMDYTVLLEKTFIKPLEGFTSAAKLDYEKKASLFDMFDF
Experiment: X-ray crystallography

B1: P/T cocrystallization duplex (18-mer template/13-mer ddC primer) (dsDNA)
DNA 1: TCAGGTAAGCAGTCCGCG
DNA 2: GCGGACTGCTTAC
modifications: primer 3' terminus dideoxy (ddC)
Question: Does B1 bind?
Answer: Result: binds
